Test results: US20040171585

Target: T1, HNF-4α (UniProt P41235)
T1 sequence: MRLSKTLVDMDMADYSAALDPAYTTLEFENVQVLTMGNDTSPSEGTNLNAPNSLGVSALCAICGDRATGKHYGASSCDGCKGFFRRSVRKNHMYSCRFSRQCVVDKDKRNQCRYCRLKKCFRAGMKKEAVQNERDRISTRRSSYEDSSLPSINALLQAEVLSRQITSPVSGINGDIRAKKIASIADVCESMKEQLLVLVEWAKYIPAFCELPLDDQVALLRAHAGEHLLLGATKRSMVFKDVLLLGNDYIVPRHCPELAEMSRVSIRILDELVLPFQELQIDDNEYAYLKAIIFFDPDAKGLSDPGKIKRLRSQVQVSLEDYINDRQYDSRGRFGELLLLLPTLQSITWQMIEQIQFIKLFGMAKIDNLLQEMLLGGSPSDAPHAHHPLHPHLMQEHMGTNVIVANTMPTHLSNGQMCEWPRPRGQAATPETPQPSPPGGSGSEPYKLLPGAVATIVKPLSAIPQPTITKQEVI
Assay: cell_activity
Conditions: CAT reporter with TK promoter and one to three C3P copies, COS-7, no added fatty acids

“GCAGGTGACCTTTGCCCAGCGCC (double strand) [C3P element of apo CIII promoter (-87/-66)]” gave an activity (fold activation) of 7.
